Earlier results, collected in publication PMC4753134.

Experiments:
[1] = target: EGFR (Homo sapiens) (UniProt P00533)
[2] = target: Met (Homo sapiens) (UniProt P08581)
Sequence of UniProt P08581 (P08581 25-932): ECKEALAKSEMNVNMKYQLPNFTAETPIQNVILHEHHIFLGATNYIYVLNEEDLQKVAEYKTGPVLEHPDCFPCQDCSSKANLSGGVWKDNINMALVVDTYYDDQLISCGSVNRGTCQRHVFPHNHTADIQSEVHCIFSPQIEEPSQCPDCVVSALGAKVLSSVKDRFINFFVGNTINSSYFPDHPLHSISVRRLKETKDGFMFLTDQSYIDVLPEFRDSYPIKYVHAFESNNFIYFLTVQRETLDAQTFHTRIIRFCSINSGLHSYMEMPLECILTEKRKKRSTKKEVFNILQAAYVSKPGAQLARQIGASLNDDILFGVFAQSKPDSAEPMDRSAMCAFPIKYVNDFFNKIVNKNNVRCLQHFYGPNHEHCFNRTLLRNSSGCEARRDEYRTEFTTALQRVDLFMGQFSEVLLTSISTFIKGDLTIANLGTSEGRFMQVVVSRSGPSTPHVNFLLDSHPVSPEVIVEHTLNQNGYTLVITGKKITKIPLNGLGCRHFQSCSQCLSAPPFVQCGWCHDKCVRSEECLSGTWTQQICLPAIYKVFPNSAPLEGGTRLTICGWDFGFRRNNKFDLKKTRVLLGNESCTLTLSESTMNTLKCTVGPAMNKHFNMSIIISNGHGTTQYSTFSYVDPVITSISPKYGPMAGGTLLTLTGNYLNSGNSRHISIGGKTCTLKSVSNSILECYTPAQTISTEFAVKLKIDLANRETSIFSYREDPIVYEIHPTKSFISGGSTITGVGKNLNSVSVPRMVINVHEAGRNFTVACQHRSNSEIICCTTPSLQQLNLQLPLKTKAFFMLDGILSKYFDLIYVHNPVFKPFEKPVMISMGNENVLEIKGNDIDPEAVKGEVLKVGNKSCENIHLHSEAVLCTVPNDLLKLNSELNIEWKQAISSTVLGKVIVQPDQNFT

Kd [1]: 87 nM
Kd [2]: 2 nM
Substance: decorin (from UniProt P07585)
